According to US10654918B2, “Inflammatory disease diagnosis and methods of treatment using down-regulators of lipopolysaccharide-responsive beige-like anchor” (University of South Florida, priority 2013, dated 2020):

Key:
Format in all cases: cell-based, human
[1] = test system: NF-κB; test: NF-κB luciferase reporter and phospho-NFκB flow cytometry in Raji cells with LRBA knockdown
From the text: FIG. 45A-D. Knockdown of LRBA deregulates NFκB. (A) Knockdown of LRBA increases NFκB luciferase activity. An NFκB luciferase reporter was used to measure the NFκB transcription activity. The data are shown as scatter with bar graph of mean with standard error of mean (SEM). (B) Knockdown of LRBA increases phospho-NFκB. The Phosflow kit including Cytofix Fixation Buffer, Phosflow Perm Buffer III and Stain Buffer (BD) and phospho-antibodies, NFκB p65 (pS529) PE-Cy7 were used for the intracellular staining following the company's instruction. For each samples, 50,000 cells were recorded for the FACS assay. (C) A549 cells were stably transfected with LRBA shRNA knockdown plasmid and several clones were picked up. […]
FIGS. 46(A) and (B). […] NFκB luciferase activity was measured at each time point for both cell lines as in A. RLU: Relative Light Units. […]
NF-κB is the central regulator of the immune system and plays a pivotal role in inflammation and immune responses. […] Raji cells were stimulated with LPS for different times from zero to several hours, and the NF-κB activity was measured by NF-κB luciferase reporter. […]
Ready-To-Glow™ NF-κB Secreted Luciferase Reporter System (Clontech) and Firefly Luciferase Assay Kit (Biotium, Calif., USA) were used following the manufacture's instruction.

[2] = test system: LRBA; test: Knockdown of LRBA in Raji B cell lines stably transfected with LRBA shRNA; conditions: three Raji B cell lines stably transfected
Procedure: Three Raji B cell lines stablely transfected with LRBA shRNA that knockdown LRBA over 90% were generated, along with […] mouse cell lines stably transfected with a LRBA DNM.
LRBA was tested for its effect on cell growth. For the “loss of function” strategy, EBV immotalized LRBA-deficient B cell lines were generated from LRBA deficient patients, and dominant negative LRBA mutants (DNM) and knockout mouse models. The LRBA sequence targeted by the shRNA used was SEQ ID No. 15;

[3] = test system: Raji B cells; test: Viable cell count of Raji B cells and Rajisi9 B cells; conditions: 10 cells per well, 11 days
Procedure: FIG. 20 is a graph showing knockdown of LRBA promotes B cell proliferations. Raji B cells and Rajisi9 B cells (Raji B cells stably transfected with shRNA plasmid against LRBA) were culture on a 96 well plate with 10 cells per well for 11 days. Viable cells were counted by the Trypan blue live/dead discrimination method with a Hemocytometer.
Raji B cells and Rajisi9 B cells (Raji B cells stably transfected with shRNA plasmid against LRBA) were cultured in a 96 well plate with 10 cells per well for 9 days. Blockage of LRBA promotes THP1 cell proliferation. THP1 cells (human acute monocytic leukemia cell line) were cultured in 100 μl of RPMI1640 media with or without human LRBA polyclonal IgG antibody at 0.67 μg/ml or the same amount of human actin polyclonal IgG antibody on a 96 well plate with 10 cells per well for 9 days. Viable cells were counted by the trypan blue live/dead discrimination method with a hemocytometer.

[4] = test system: Raji and Raji9 cells; test: Annexin V apoptosis assay after infection with adenoviruses or Gram-negative bacteria; conditions: 24 hrs after infection with adenoviruses or Gram-negative bacteria
Procedure: FIGS. 49(A) through (B) are graphs showing cells with LRBA knockdown cannot fight viral and bacterial infections efficiently. Half million of Raji and Raji9 cells were infected with adenoviruses at 100 multiplicity of infection (MOI) or 50 μl of Gram-negative bacteria from overnight culture. After 24 hours of incubation at 37° C., Apoptosis was detected by Annexin V-PE and 7-AAD. Cells that were double negative (left lower quadrant) were viable, Annexin only positive cells (right lower quadrant) were early phase of apoptosis or other cell death, and double positive cells (right upper quadrant) were end stage apoptosis or dead. ****p<9E-05, *p<0.007.
In order for pathogens to efficiently spread to neighboring cells and evade the immune cells, and/or gain nutrients, one prominent strategy of many bacterial pathogens is to cause host cell death (31). On another hand, the host cell, first will try to kill the evaded pathogens. As such, cell death may be used as a hallmark of immunodeficiency. […] It is hypothesized that Raji cells with LRBA knockdown can serve as an immunodeficiency in vitro model, i.e. they cannot fight pathogens efficiently when compared to wild type cells, manifested as more cell death.

B1: LRBA shRNA: shRNA plasmid against LRBA; targeted LRBA sequence SEQ ID No. 15 GGGATATTGTAGAAACTGTCTTT (nucleic acid)
sense: GGGATATTGTAGAAACTGTCTTTTTCAAGAGAAAAGACAGTTTCTACAATATCCCTTTTTT
antisense: CCCTATAACATCTTTGACAGAAAAAGTTCTCTTTTCTGTCAAAGATGTTATAGGGAAAAAA
phospho-NFκB (pS529), flow cytometry ([1]; Raji cells): increases
average levels of the NF-κB activity (luciferase reporter) ([1]; Raji cells stimulated with LPS, zero to several hours): higher
knockdown of LRBA [2]: over 90%
B cell proliferations (viable cells, Trypan blue) [3]: promotes
dead cells or apoptotic cells (Annexin V-PE, 7-AAD) [4]: more dead cells or apoptotic cells
